Assay results reported in a protein production outcome set (Wang et al. 2014).

Experiment: label from the status in PepcDB records

Sequence | protein production
MIEITFLGGGGGRFVTITQVRATGGFFIKASKNIYVDPGPGALVRMWRYKIDPRKVDVLFISHRHTDHCNDAEVLVEGMTYGVTKKRGTLIGSKSVVHGDENHTPALSKYHLDALEEVHAPNPGDRFKIGEDEMIITPSLHSDPTTIGFRLKTSYGDISYIPDTEYFEELVKWHDGARVIIAAVTRPRDMRIPFHLSSEDAVYLLKSMKQKPEVFIMTHAGMKMHFAGPYKEAQFIQNLTGVKTYVAKEGFKVSIGKEISVKTLRPARFVLEHHHHHH | not failed
MSFLVLLLAVLIEKFSALRQRVQRDEPWLNAFARREASPRTAKRPWLTLALLILVPVLLLQLALTIIGSVAYGWLVLPIHLLVLIYSLGRVDLIAVLGPFRDACRRGDAQAAVHVAQRDMRVEADNGEQLLQGVQGYMLWQAFQSFFAVIFWYFVLGPVAALAYRLLALAAEHGKTPPLVERAGQLRHAFDWVPVRLLAASFALVGNFVAVSRVMLHELLNWNISAAQLITRVGCAASEVPPPVIGTQGVTSLDMLWELLVRAAIVWYAGFALWTLLR | failed
MPMHFLLFAVVCSVLVSVLLKLAPRHRIDVFQAITWNYATAALLAWLILHPALDTLRSTTAPWVALLLLAVALPSIFLVLARSVAVAGIVRTDVAQRLSLVLSLAAAFTVFGEPVNGWKLAGLALGMVAIACIVRRPRQHVATDPLPSTTGLPWLVGVWMGFALIDLLLKHIAQAGTPSLTSLTLCFALAFLLMLGVQSVRWARGARPSTRSMLAGVLLGALNFGNILCYVRAHQVLPHSPATVFASMNLGVVVLGALVGKLGFAERLGLRGWLGLALAAPAIAAIAWGIRLG | failed
MVAPLEIKNSNAFCFFPVSFASSRFPWLLKTLVMILGLATVVFMFRSLALTAEFGTFKPAFPKPGPVDPVLKLLSEEHLRTLFTYSDIWLFPKNQCDCESGKQQMKYKYQNAYNQKDLPAVNARRQAEFEHFQRREGLPRPPPLLASPNLPFGYPVHGVEVMPLHTILIPGLQYEGPDAPVYEVTLKASLGTLNTLADVSDNEVQGRGQRQLSISTRHRKVLNFILQHVTYTSTVYHLHKVDIVSMESKSSVAKFPVTIKHQTVPKLYDPGPERKLRNLVTIATKTFLRPHKFKILLQSIRKYYPDLTVIVTDDSKEPLEIKDDYVEYYPMPFGKGWFAGRNLAISQVTTKYVLWVDDDFLFSNKTKIEVLVDVLEKTELDVVGGSVQGNTFQFRLLLERSENGDCLHQRWGSFQALDGFPGCTLASGVTNFFLAHTEQLRRVGFDPALQRVAHREFFIDGLGSLLVGSCPGVTVDHQTRTPSKDPKLAALEMSYAKYRTNTNSQVQFKLALHYFKNHLYCAT | failed
MGHHHHHHSHMSSRGHSTLPRTLMAPRMISEGDIGGIAQITSSLFLGRGSVASNRHLLQARGITCIVNATIEIPNFNWPQFEYVKVPLADMPHAPIGLYFDTVADKIHSVSRKHGATLVHCAAGVSRSATLCIAYLMKFHNVCLLEAYNWVKARRPVIRPNVGFWRQLIDYERQLFGKSTVKMVQTPYGIVPDVYEKESRHLMPYWGI | failed
MWDVIVVGGGPSGLSAALFLARAGLKVLVLDGGRSKVKGVSRVPNYPGLLDEPSGEELLRRLEAHARRYGAEVRPGVVKGVRDMGGVFEVETEEGVEKAERLLLCTHKDPTLPSLLGLTRRGAYIDTDEGGRTSYPRVYAAGVARGKVPGHAIISAGDGAYVAVHLVSDLRGEPYKDHAL | not failed
MQHGPVVRRRKLGAELRALRTSAGITSGEAARLVGWHQSKVSRIETGTSGAKPADVRLLLDAYGVTDEQLRGLLVMLAHSEDAGGRNHWWHAYRGVLPPTYRDFISLESQAAAMRTLETTVVPGLLQTPEYARAVTRAAVDGMPAERLDTLVEVRLARQDVLRGEPPLELSAVLDEAVLRRVVGGPGVMSRQLTRLVEAAQLPHVRIQVLPFAAGAHIGVTGPFVIFSFSSTSDLDVVVLDHLTSSLHLERKEDLEAYTEAFNALLIHALSPEDSLDFIAATAAGA | failed
MNVTGKLRGLISFSTVLPLKSEASIEDIASLTLHWPLVGALIGVAVGSAGVAASLVFPGAVVACVAYGFAIWFTGFHHLDGLIDMGDALMSHGSFERKIEIMRDPRIGTGGLGLLLIVSSTTIAAIYSLPQGVLFQGLLIGEVSAKVCLTGCARVSRPLDGGTGRHFIMASRSPFTGMVWIFWAVAAYLLAGVPGAVSVAVAVLSGVFIGLVARRNFYWSTGDVLGASNEVGRMMSLLGLLAAIRLTGL | failed
MDAEEKDGVLYFEGQVLTGAKVNSVIDHTLLDFGCEAEETIVSCGEDTSNPHGTTEGPLRANAPIILDIFPRSKKKRYFADMTRTVLRGEASEKLKEMYETVLVAQQKALEMVKPGIHSSEIHRAVCDLFEARGYHTYRSGSKAGFTHSTGHGVGLDIHELPSVGESGVLLETGNVITIEPGLYYPGIGGIRLEDMVLVTKTGYENFTGLEKKFVLKSFYNLEHHHHHH | not failed
MAFAEGALDALKVAFQEGARSLVLLSPVLFRDALLSARLGALRFGLERGGVEGFARVGRALFFGALSAGSEEVYEAWKEGLSEAGLWRWLGRLEALADERRWLRGTAARVLVVQGALDAFTPPLHGAKVADFAKGEALRFVVDEAGHLVPWEAQEEVRDLVADFLLGEGFRPLPGGLAL | failed
MAGRQPGGAAMKALLHGIAEGNGRTLRNLLGLLIFIGGGYLLGRHALLLAELNLPAPIVLALKGGLLCAFGTALGAMPVLVVKTMPARLSDALLGFGAGVMLSATAFSLIMPALSAAGDLGYSKFGAGFLVSFGLAVGVMGLFILGRLMPDVHPGCEGAPLSGGIPPRILLFVTAIVLHNIPEGMAVGVSAGAGLDEANGLALGIALQDVPEGLVVALVLAGVGMSRFKAMLVGAASGLVEPLFAVLCAWLVGLSALLLPWGLAAAAGAMLFVVTHEIIPESHRQGHAAEATLGLVFGFCLMMVLDTALG | failed
ESICLIGHSLGGDLARYFASEFEEVKKLILLDGGYLDLDKILPLDTELEETKNYIKSQIVSDLDVLTSKEKSEAKHWSENMEKAVRQSYHWNVEYNRYELAINYENIEAILRLRRKIQAFKREVGDTLFISPRYPNEATWREEALKELPDYFDTIFLENFGHELYTQAPKEIASLMNEWL | failed
MSESNISGPLAGEYRDLAVYGRLATVTMIWGGTFVAGRYLAGGLSPLLAASLRFLLASLALLGFMAVARIPLVRPSLRQFGQLALLGFFGIFFYNLCFFLGLEQVKASRASLIVALNPAVIALASWALFKERLGRRKLLGIALCLCGAALVICSRDPSALAAQAGSWQGDLLILGCVLGWGVYSLFSRGLNHSLGSLQTVTCSILLGTLMLCAATLIRGEFDLQAVARLNLAQGLSLLYLGVLGSALAYIWYYDGLRRIGATRCGVFIALNPLTAVILGALVLGEQLSPVMGLGGALILGGIYQCNKPLAGGAKKAIL | failed
MYNSATVIYQNLLKSTPKKASEYYYYLGDICWRKEKTDSAKYYFMEGIKTDETYAMNYVGIGIITMKSNATEGQRSFDKALQMTSQKNSQVLNAIGEYYILEADKAELPKGIALLKKSTEIDAKNAMSWILLGDAYGKQAEGSKQAESYGKAANLFHSVPLLKMKYGKMYAAARNKDLSIKYYNEGLAADPTYGPIYRELGDLYNRFRQYDLAIQNYKKYLTYIDSNDDVEFRYADFLFKNNNYAEAIEVFNKLEAKKYNSPYIYNRRAVCYYELAKYDLAQKDIETYFSKVNATKAKSADFEYYGKILMKKGQDSLAIQQYQAAVDRDTTRLDMYGQIGSYFYNKGNFPLAIQYMSKQIRPTTTDPKVFYELGQAYYYNKEYVKADSSFVKVLELKPNIYIGYLWRARANAAQDPDTKQGLAKPYYEKLIEVCAPGGAKYKDELIEANEYIAYYYTINRDKVKADAAWKNILALDPTNKKAIDGLKMK | failed
MRTAVAVPYHSGIRLPLLFEKNARMTETIDTNVFNLAPVAMWIEDFSEVKSQFDIWRAEGIEDIRAFLLEDLSRVAACSQKIRVIEVNAKTLELFEARDQAHLVDNLHRIFRDDMLESHVNELSELWAGRTEFTSNAVNYSIGGRRLDIQLRGTVIPGHEDTLGRLLLTTEDVTEREEARRKELLNRRYAEGMFKHSPVSLWVEDFSRVRRLIEEVRERGIVDFRVFMDVHPEFVRQCMSEIRVIDVNQATLDLFCAADRQVLLQRLGDIFRGEMEKPFREQLIELWNGNLTHHREVVNYALDGSERHVLLHFSVFPGHERDWSLVQVALTDITARKKAEAYLEYLGKHDVLTKLHNRAFYSDELNRLERSALRPVSAIVIDLNGLKEANDKLGHDAGDALLRRVGEVLNGVVTAPNHAARIGGDEFAILLPGADKQVAAAMVDTVYELLKINNQFYSSAPLSLSLGVATTEAGETMESLVRRADMNMYEQKNAYYAALRNRSADNNDTTKGGSQSETTSLKRLF | failed
MRKRIFWLLPDLASARRTMDDLLLARIENSHIHFVGRDGADMTGLHEANLFQTSDIVHAAEMGLMVGGGVGIVAGVVVAMFPIVSDSPQWGLVGVLAVLGAVFGAWAASMIGSSAPNSRLRSFEKDIEAGKLLLMVDVPRGRVEEVEALLQKAHPEASFAGLDPAVPAFP | failed
MSVDTTVKNRVYPAIPPTQLPEFETIFGHPKPLWMLFMAEFWERFAFYGIRWALTLYIVTQFFDGNAIGEGNANSTYGAYLALVYASAIFGGFIADRIIGYQRSIIIGAVIMACGLFLITVPSRTMFEIGLATIVIGNGLFKPNISSLVGQLYAEGDTRRDRGFTIFYMGINAGSLISPLITSWLAGQVFGTPMQQNYKVVFIASGIGMFLSLLWFWIGKRQLKGIGLSPKGGESIFRTFLIVFGALLAIPLAYLLLAKLNATTLAWILGLLFAVLATLLIVTALRNGKIQRDRVIAMLIIFVFNVMFWMFFEQAGSSFNFLAKNIVDRQILSNWEFPVGWFQSVNPLAIILLAPIIAVIWSLLDKYRIEPSIPRKFSFGLMFNGFGFLILMYALSNLLNASNMIPFWSLIAVYVIQTVGELCLSPIGLSMVTKLAPVRLVGFAMGGWFLSTAIGNNLSGVFASFVSGEEGMTVSSALRGYTFGFWSLIGSGILLFLISPLINRLMHGVK | failed
MAPQASTRENACRSEMLSASSRGSGWPCQENPDLSIPPLRPIALSRRNGWWSGAAAVKLASGHCTGRWKMSFWYVVDAVAVGIILPWIIATYRLLEAFKRGTGAGLTKWAIYAAVCVPAMLLVMWGIQNLR | failed
AHNLALGAHGEDLAARYLTEAGMEIVDRNWRSRYGEVDLIAAEGDWLVFVEVKTRRGLGYGSPAEAVTFSKQRRIRLLAVEWLRDSGRHWSRVRFDVVAIMIGHGPQPQIEHVRD | failed
MEIEFMTNVAVRRPNLNDVDELYLFFRIVITNTYKNEGLSQSLDDIENEINSKKQYLKSDFDSNGEGRYFLLAIDTSNDKIIGTIEIGPASTLINSCTGGVLKNLYEIGTVFILPEYQRKGIGSLLLHTMFLTLLSRGITEYCLDSGYKNAQSIWTKKFGKPSYVLKDYWGESSDHMIWKKSLHDTPIIFEL | failed
MRPLEDDEPTVVGPYRLLGRLGSGGMGRVYLGRSAGGRTVAVKIVHPHFALDEEFRARFRREVAAARRVGGAWTAPVLDADPEARVPWVATAYAAGPSLTAAVADGGPLPAHSVRALGAGLGEALAAVHELGLVHRDVKPSNVLLTLDGPLLIDFGIARATGGTSPTQSGGGTASLTSTGVSIGSPGYMSPEQILGKGVTGAADVFSLGAVLAYATTGQPPFPGDSSAALLYKVVHEEPNLDGLDDGELRELVASCLAKDPSARPAPAEVARRLAPEGAARLVTGGWLPGALVERVSRSAVRLLNLEAGESATGASGPVGFSRPSVTAGGDAGVATPASGVFGPPPVMPAPTSPSYPPSPPAPAPAPSPALLSVPGPRHPGPPDDDPGAGTGTTRPPGRLALSVAATSTQGAQGRGRRISCTVALAVAGALAAVTVGSVFVLDLLPGSGNDANNAGGNEASHDPPAATPGGLPARYLGTWEGQAAALDGKLPLGTFRITIKQAKAGQELGRLRQTDALGGVCVDVITLKKVTEKQLVAGSAGAEGNHDGCNPAPTTVTFTPVGDDLDYASKSEESGRPTARLSKVG | failed
